B1: monocyte-CSF (protein, UniProt P09603 33-554, looked up)
Macrophage colony-stimulating …: EEVSEYCSHMIGSGHLQSLQRLIDSQMETSCQITFEFVDQEQLKDPVCYLKKAFLLVQDIMEDTMRFRDNTPNAIAIVQLQELSLRLKSCFTKDYEEHDKACVRTFYETPLQLLEKVKNVFNETKNLLDKDWNIFSKNCNNSFAECSSQDVVTKPDCNCLYPKAIPSSDPASVSPHQPLAPSMAPVAGLTWEDSEGTEGSSLLPGEQPLHTVDPGSAKQRPPRSTCQSFEPPETPVVKDSTIGGSPQPRPSVGAFNPGMEDILDSAMGTNWVPEEASGEASEIPVPQGTELSPSRPGGGSMQTEPARPSNFLSASSPLPASAKGQQPADVTGTALPRVGPVRPTGQDWNHTPQKTDHPSALLRDPPEPGSPRISSLRPQGLSNPSTLSAQPQLSRSHSSGSVLPLGELEGRRSTRDRRSPAEPEGGPASEGAARPLPRFNSVPLTDTGHERQSEGSFSPQLQESVFHLLVPSVILVLLAVGGLLFYRWRRRSHQEPQRADSPLEQPEGSPLTQDDRQVELPV
B2: gamma interferon (protein, UniProt P01579 24-161, looked up)
Interferon gamma: QDPYVKEAENLKKYFNAGHSDVADNGTLFLGILKNWKEESDRKIMQSQIVSFYFKLFKNFKDDQSIQKSVETIKEDMNVKFFNSNKKKRDDFEKLTNYSVTDLNVQRKAIHELIQVMAELSPAAKTGKRKRSQMLFRG

How the values were obtained:
[1] = test system: tumor cells (monocyte cytotoxicity assay); experiment: Effect of indomethacin on tumoricidal function of cancer patients' monocytes (Example 15); settings: for regulation of tumoricidal function by an indomethacin-sensitive function: indomethacin up to 5 ng/ml
[2] = test system: lymphocytes; experiment: Stimulation of lymphocyte DNA synthesis; format: cell-based, human; settings: optimal stimulating concentration of PHA
Procedure: These indicators of immune function also can be modulated in cancer patients who are treated with different biological response modifying agents such as interferon or interleukin-2.
1) Stimulation of Lymphocyte DNA Synthesis: Comparison with an Optimal Stimulating Concentration of Phytohemagglutinin (PHA)

[3] = test system: mouse hybridoma cell line HYB #6-1; experiment: Antiproliferative bioassay in mouse hybridoma cells (Example 4); format: cell-based; settings: procedure of Example 4
Procedure: The bioassay is carried out as follows. […] Hybridoma cell samples are specifically quantitated. Using a hemocytometer the calls in a 100 μl sample are counted. The cells are concentrated by centrifugation and then cell concentration is adjusted to 1,000 cells/ml (twice the final desired concentration) by addition of appropriate volumes of fresh media. […] After 96 hours, each well is sampled at 100 μl×3 and placed in a 96 well plate. (A blank of 100 μl of medium without cells is included.) Cell density is determined using a PROMEGA CellTiter 96 kit. Cell concentration is measured by reading absorbance at 595 nm (650 nm reference) and recorded by ELISA plate reader. For each assay, a standard curve of cell concentration is prepared. Cultured cells in the log phase of growth are sampled, counted, concentrated and resuspended in serial dilutions. Each dilution is sampled at 100 μl×3 and placed in a 96 well plate. The standard curve is constructed by plotting cell density versus “net” OD at 595 nm after subtraction of zero cell blanks and OD at 650 nm. Cell density of unknown samples is determined by interpolation.

[4] = test system: tumor cells (monocyte cytotoxicity assay); experiment: Tumor cytotoxicity of peritoneal macrophages from patients with gynecological disease (Example 14); format: cell-based, human; settings: Monocyte/Tumor Cell ratio 15/1; 7 patients (3 benign, 4 malignant); composition 1:10 of batch 222, gamma interferon 100 U/ml, interleukin-12 500 U/ml, monocyte-CSF 500 U/ml
From the text: Immunother 32:55-61, 1990.

[5] = test system: tumor cells (monocyte cytotoxicity assay); experiment: Tumor cytotoxicity of peripheral blood monocytes from patients with gynecological disease (Example 14); settings: Monocyte/Tumor Cell ratio 15/1; 7 patients (3 benign, 4 malignant); composition 1:10 of batch 222, gamma interferon 100 U/ml, interleukin-12 500 U/ml, monocyte-CSF 500 U/ml
From the text: More particularly, the patient population consisted of 7 patients, 3 with benign disease and 4 with malignant disease (2 ovarian cancers, 1 endometrial cancer, and 1 cervical cancer). Samples were removed from patients at the time of surgical procedure.

| Molecule | regulation of tumoricidal function by an indomethacin-sensitive function [1] | % Tumor Cytotoxicity (+/−S.E.) Peritoneal Macrophage [4] [%] | % Tumor Cytotoxicity (+/−S.E.) Peripheral Blood [5] [%] | other results |
| --- | --- | --- | --- | --- |
| gamma interferon [IFN-γ] | regulated by an indomethacin-sensitive function | – | – | – |
| Phytohemagglutinin [PHA] | – | – | – | Stimulation of lymphocyte DNA synthesis [2]: 125,817 Counts per Minute |
| CCCCCCCCCCCCCC(=O)O[C@@H]1[C@@H](C)[C@@]2(O)[C@@H](C=C(CO)C[C@]3(O)C(=O)C(C)=C[C@@H]23)[C@@H]2C(C)(C)[C@]12OC(C)=O [Phorbol Ester (PNA)] | not regulated by an indomethacinsensitive function | – | – | – |
| granulocyte macrophage colony stimulating factor [GM-CSF] | regulated by an indomethacin-sensitive function | – | – | – |
| C[C@H](CCC(=O)NCCS(=O)(=O)O)[C@H]1CC[C@H]2[C@@H]3[C@H](O)C[C@@H]4C[C@H](O)CC[C@]4(C)[C@H]3C[C@H](O)[C@]12C [sample (1), taurocholic acid] | – | – | – | anti-proliferative activity, in words [3]: Neither sample (1) nor sample (2) had any detectable anti-proliferative effect |
| interleukin-12 [IL-12] | not regulated by an indomethacinsensitive function | 8.5 ± 2 | 26.0 ± 4 | – |
| N.O [sample (2), NH3.H2O] | – | – | – | anti-proliferative activity, in words [3]: Neither sample (1) nor sample (2) had any detectable anti-proliferative effect |
| B1 | regulated by an indomethacin-sensitive function | 7.0 ± 2 | 16.0 ± 2 | % cytotoxicity ([1]; peripheral blood monocytes from cancer patients, activator alone or with indomethacin (up to 5 ng/ml) added simultaneously): 14.1 ± 3% |
| B2 | – | 9.5 ± 1 | 18.3 ± 2 | – |

Reference: patent US20080279957A1, “Immunomodulating compositions from bile” (Lorus Therapeutics Inc., priority 2000, published 2008)
